{"source": "paper PMC5966398", "about": "“Conserved RNA binding activity of a Yin-Yang 1 homologue in the ova of the purple sea urchin Strongylocentrotus purpuratus”", "binders": {"B1": {"name": "YY1 consensus DNA element (YY1C) (dsDNA)", "DNA 1": "CTAGGCGCTCCCCGGCCATCTTGGCGGCTGGT", "DNA 2": "ACCAGCCGCCAAGATGGCCGGGGAGCGCCTAG"}}, "molecular_target": "SpYY1 (recombinant) (Strongylocentrotus purpuratus, UniProt A0A7M7RHL1 1-400)", "sequence (A0A7M7RHL1 entry or part of it)": "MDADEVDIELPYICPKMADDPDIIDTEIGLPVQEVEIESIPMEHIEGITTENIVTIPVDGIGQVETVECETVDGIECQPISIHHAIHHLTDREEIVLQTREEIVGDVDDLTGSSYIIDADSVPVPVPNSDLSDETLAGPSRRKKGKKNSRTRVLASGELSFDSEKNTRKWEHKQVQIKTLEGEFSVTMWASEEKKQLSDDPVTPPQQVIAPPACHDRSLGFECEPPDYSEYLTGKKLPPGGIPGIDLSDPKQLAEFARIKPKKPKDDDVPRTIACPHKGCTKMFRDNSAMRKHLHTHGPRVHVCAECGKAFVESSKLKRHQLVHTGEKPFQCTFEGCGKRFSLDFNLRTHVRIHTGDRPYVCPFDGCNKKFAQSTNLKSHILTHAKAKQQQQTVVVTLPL", "assay": "EMSA; 250 nM protein, 10 nM probe; 50 mM NaCl, 50 mM Tris-HCl pH 7.5, 2 mM MgCl2, 1 mM DTT, 5% glycerol, room temperature 20 min; 10 nM probe; recombinant protein 0.5 uM (Methods) or 250 nM (Fig. 4 legend); lysate reactions with poly-dIdC (DNA) or yeast tRNA (RNA)", "conditions": "tags: His tag and EK site from pRSetB (text says C-terminal)"}
{"binder": "B1", "values": [{"measurement": "binding result", "setting": "label: 32P end-fill when probe", "value": "binds"}]}
{"binder": "UUUUUUUUUUUUUUUUUUUU (ssRNA)", "note": "[U(20) RNA]", "values": [{"measurement": "binding result", "setting": "label: 5'-32P when probe, single strand", "value": "binds"}]}
